Measured values reported in the Human Domainome abundance scans (Beltran et al. 2025).
± gives the uncertainty stated by the source.

B1: Zinc finger homeobox protein 3, residues 2643 to 2698; numbered along this chain, Q15911 (parent)
chain: RLRTTITPEQLEILYQKYLLDSNPTRKMLDHIAHEVGLKKRVVQVWFQNTRARERK

Variants of: B1
Test: abundance fitness (aPCA) (normalised: wild type 0, dead -1); higher = more abundant; growth selection in yeast, the domain comes from the species named
Settings: Homo sapiens

Row | Variant | abundance fitness
1 | RLRTTITPEQLEILYQKYLLDSNPTRKMLDHIAHEVGLKKRVVQVWFQNTRARWRK | -0.512 ± 0.12
2 | RLRTTITPEQLEILYQKYLLDSNPTRKMLDHIAHEVGLKKRVVQVWFQNTRARNRK | -0.531 ± 0.1
3 | RLRTTITPEQLEILYQKYLLDSNPTRKMLDHIAHEVGLKKRVVQVWFQNTRARARK | -0.478 ± 0.072
4 | RLRTTITPEQLEILYQKYLLDSNPTRKMLDHIAHEVGLKKRVVQVWFQNTRARIRK | -0.197 ± 0.1
5 | RLRTTITPEQLEILYQKYLLDSNPTRKMLDHIAHEVGLKKRVVQVWFQNTRARPRK | -0.38 ± 0.076
6 | RLRTTITPEQLEILYQKYLLDSNPTRKMLDHIAHEVGLKKRVVQVWFQNTRARYRK | -0.438 ± 0.11
7 | RLRTTITPEQLEILYQKYLLDSNPTRKMLDHIAHEVGLKKRVVQVWFQNTRARVRK | -0.39 ± 0.079
8 | RLRTTITPEQLEILYQKYLLDSNPTRKMLDHIAHEVGLKKRVVQVWFQNTRARDRK | 0.014 ± 0.097
9 | RLRTTITPEQLEILYQKYLLDSNPTRKMLDHIAHEVGLKKRVVQVWFQNTRARCRK | -0.306 ± 0.1
10 | RLRTTITPEQLEILYQKYLLDSNPTRKMLDHIAHEVGLKKRVVQVWFQNTRARMRK | -0.177 ± 0.09
11 | RLRTTITPEQLEILYQKYLLDSNPTRKMLDHIAHEVGLKKRVVQVWFQNTRARHRK | -0.229 ± 0.084
12 | RLRTTITPEQLEILYQKYLLDSNPTRKMLDHIAHEVGLKKRVVQVWFQNTRARRRK | -0.701 ± 0.09
13 | RLRTTITPEQLEILYQKYLLDSNPTRKMLDHIAHEVGLKKRVVQVWFQNTRARQRK | -0.495 ± 0.11
14 | RLRTTITPEQLEILYQKYLLDSNPTRKMLDHIAHEVGLKKRVVQVWFQNTRARTRK | -0.361 ± 0.077
15 | RLRTTITPEQLEILYQKYLLDSNPTRKMLDHIAHEVGLKKRVVQVWFQNTRERERK | 0.291 ± 0.12
16 | RLRTTITPEQLEILYQKYLLDSNPTRKMLDHIAHEVGLKKRVVQVWFQNTRIRERK | -0.639 ± 0.18
17 | RLRTTITPEQLEILYQKYLLDSNPTRKMLDHIAHEVGLKKRVVQVWFQNTRSRERK | -0.021 ± 0.083
18 | RLRTTITPEQLEILYQKYLLDSNPTRKMLDHIAHEVGLKKRVVQVWFQNTRYRERK | -0.221 ± 0.22
19 | RLRTTITPEQLEILYQKYLLDSNPTRKMLDHIAHEVGLKKRVVQVWFQNTRKRERK | 0.035 ± 0.14
20 | RLRTTITPEQLEILYQKYLLDSNPTRKMLDHIAHEVGLKKRVVQVWFQNTRGRERK | -0.037 ± 0.078
21 | RLRTTITPEQLEILYQKYLLDSNPTRKMLDHIAHEVGLKKRVVQVWFQNTRNRERK | 0.062 ± 0.14
22 | RLRTTITPEQLEILYQKYLLDSNPTRKMLDHIAHEVGLKKRVVQVWFQNTRPRERK | -0.598 ± 0.14
23 | RLRTTITPEQLEILYQKYLLDSNPTRKMLDHIAHEVGLKKRVVQVWFQNTRCRERK | -0.209 ± 0.12
24 | RLRTTITPEQLEILYQKYLLDSNPTRKMLDHIAHEVGLKKRVVQVWFQNTRTRERK | -0.419 ± 0.1

Row | Variant | abundance fitness
25 | RLRTTITPEQLEILYQKYLLDSNPTRKMLDHIAHEVGLKKRVVQVWFQNTRMRERK | -0.138 ± 0.11
26 | RLRTTITPEQLEILYQKYLLDSNPTRKMLDHIAHEVGLKKRVVQVWFQNTRWRERK | -0.335 ± 0.097
27 | RLRTTITPEQLEILYQKYLLDSNPTRKMLDHIAHEVGLKKRVVQVWFQNTRFRERK | -0.428 ± 0.2
28 | RLRTTITPEQLEILYQKYLLDSNPTRKMLDHIAHEVGLKKRVVQVWFQNTRQRERK | 0.21 ± 0.11
29 | RLRTTITPEQLEILYQKYLLDSNPTRKMLDHIAHEVGLKKRVVQVWFQNTRLRERK | -0.317 ± 0.086
30 | RLRTTITPEQLEILYQKYLLDSNPTRKMLDHIAHEVGLKKRVVQVWFQNTRDRERK | 0.244 ± 0.12
31 | RLRTTITPEQLEILYQKYLLDSNPTRKMLDHIAHEVGLKKRVVQVWFQNTRVRERK | -0.349 ± 0.082
32 | RLRTTITPEQLEILYQKYLLDSNPTRKMLDHIAHEVGLKKRVVQVWFQNTRAEERK | 0.288 ± 0.11
33 | RLRTTITPEQLEILYQKYLLDSNPTRKMLDHIAHEVGLKKRVVQVWFQNTRAGERK | 0.126 ± 0.071
34 | RLRTTITPEQLEILYQKYLLDSNPTRKMLDHIAHEVGLKKRVVQVWFQNTRATERK | 0.029 ± 0.11
35 | RLRTTITPEQLEILYQKYLLDSNPTRKMLDHIAHEVGLKKRVVQVWFQNTRAKERK | -0.045 ± 0.12
36 | RLRTTITPEQLEILYQKYLLDSNPTRKMLDHIAHEVGLKKRVVQVWFQNTRADERK | 0.31 ± 0.14
37 | RLRTTITPEQLEILYQKYLLDSNPTRKMLDHIAHEVGLKKRVVQVWFQNTRAMERK | -0.132 ± 0.098
38 | RLRTTITPEQLEILYQKYLLDSNPTRKMLDHIAHEVGLKKRVVQVWFQNTRAHERK | -0.258 ± 0.15
39 | RLRTTITPEQLEILYQKYLLDSNPTRKMLDHIAHEVGLKKRVVQVWFQNTRAYERK | -0.327 ± 0.15
40 | RLRTTITPEQLEILYQKYLLDSNPTRKMLDHIAHEVGLKKRVVQVWFQNTRANERK | 0.172 ± 0.15
41 | RLRTTITPEQLEILYQKYLLDSNPTRKMLDHIAHEVGLKKRVVQVWFQNTRAFERK | 0.239 ± 0.24
42 | RLRTTITPEQLEILYQKYLLDSNPTRKMLDHIAHEVGLKKRVVQVWFQNTRACERK | 0.052 ± 0.12
43 | RLRTTITPEQLEILYQKYLLDSNPTRKMLDHIAHEVGLKKRVVQVWFQNTRAPERK | -0.266 ± 0.14
44 | RLRTTITPEQLEILYQKYLLDSNPTRKMLDHIAHEVGLKKRVVQVWFQNTRAVERK | 0.013 ± 0.076
45 | RLRTTITPEQLEILYQKYLLDSNPTRKMLDHIAHEVGLKKRVVQVWFQNTRASERK | 0.133 ± 0.086
46 | RLRTTITPEQLEILYQKYLLDSNPTRKMLDHIAHEVGLKKRVVQVWFQNTRAAERK | 0.092 ± 0.076
47 | RLRTTITPEQLEILYQKYLLDSNPTRKMLDHIAHEVGLKKRVVQVWFQNTRALERK | -0.006 ± 0.08
